Where a chain is given by its changes, count along the chain named. Numbers in names are those of the source. Blank lines part the entries; values can stand above or below the molecule they belong to.
Experiments:
[1] = Luminescence activity of ZZ-fused WNanoKAZ mutants in crude enzyme solution (Example 10); format: biochemical; details: coelenterazine substrate; for Relative luminescence activity (Imax): ZZ-fused, pCold-ZZ-P- vector in E. coli, KAZ = 1.0; for fold higher activity than native KAZ / fold higher activity than the relative activity 7.4 of dnKAZ: Imax
Procedure: In order to express ZZ-fused KAZ mutants in E. coli, the recombinant plasmid produced in EXAMPLE 8 and pCold-ZZ-P-WNanoKAZ produced in EXAMPLE 1 were used. The crude enzyme solution was prepared in a manner similar to EXAMPLE 2, using the E. coli BL21 strain (Novagen, Madison, Wis.) as a host cell. Then, 5 μL of the crude enzyme solution obtained was subjected to SDS-PAGE analysis to confirm the protein expression in all mutants. In FIG. 1, M and 1 to 8 represent as follows. M: molecular weight size markers; 1: ZZ-P-KAZ; 2: ZZ-P-WNanoKAZ; 3: ZZ-P-WNanoKAZ-V90I; 4: ZZ-P-WNanoKAZ-E115P; 5: ZZ-P-WNanoKAZ-K124Q; 6: ZZ-P-WNanoKAZ-I138Y; 7: ZZ-P-WNanoKAZ-R166N; 8: ZZ-P-dnKAZ. It was confirmed from FIG. 1 that all mutants were expressed.
(§1) DTT was added to the crude enzyme solution obtained in EXAMPLE 9 at a final concentration of 1 mM, and then allowed to stand in an ice-water bath over 8 hours or more. After 1 μL of the crude enzyme solution was added to 100 μL of 30 mM Tris-HCl (pH 7.6)-10 mM EDTA (Wako Pure Chemical Industries, Ltd.) containing 1 μg of coelenterazine (manufactured by JNC Corp.), a luminescence reaction was started. Luminescence activity was measured for 60 seconds using a luminometer (manufactured by Atto Inc.: AB2200). The maximum intensity of luminescence (Imax) was given as a relative luminescence activity (rlu).

[2] = Substrate specificity of WNanoKAZ mutants, crude enzyme solution (Example 11); format: biochemical; details: for Relative luminescence activity, 6h-CTZ, Imax / Relative luminescence activity, 6h-CTZ, Int.: substrate 6h-CTZ; for Relative luminescence activity, 6h-f-CTZ, Imax / Relative luminescence activity, 6h-f-CTZ, Int.: substrate 6h-f-CTZ; for Relative luminescence activity, CTZ, Imax / Relative luminescence activity, CTZ, Int.: substrate CTZ
Procedure: as §1
Each of the coelenterazine analogues used for substrate specificity studies was synthesized by the methods described in publications. Specifically, bis-coelenterazine was synthesized by the method described in Nakamura et al. (1997) Tetrahedron Lett. 38: 6405-6406, furimazine by the method described in Hall et al. (2012) ACS Chem. Biol. […], and, 6h-coelenterazine, f-coelenterazine and 6h-f-coelenterazine by the method described in Inouye et al (2013) Biochem. Biophys. Res. Commun. 437: 23-28. Luminescence activity was measured by the same method as in EXAMPLE 10, using the crude enzyme solution obtained in EXAMPLE 10, in which coelenterazine or its analogue was used as the luminescence substrate.

CHO-K1 cells = experiment: Luminescence activity of WNanoKAZ mutants expressed by secretory expression vectors in animal culture cells (Example 13); format: cell-based, Chinese hamster; details: pcDNA3-GLsp- secretory vector, coelenterazine substrate
Procedure: Chinese hamster ovary cell line CHO-K1 was cultured in Ham's F-12 medium (manufactured by Wako Pure Chemical Industries, Ltd.) supplemented with 10% (v/v) fetal bovine serum (manufactured by Biowest Inc.). The CHO-K1 cells were seeded in a 6-well plate in 1×10^5 cells/well/2 mL medium (n=2) and cultured in an incubator at 37° C. in 5% (v/v) CO2. After 24 hours, the purified recombinant plasmid was transfected to CHO-K1 cells using a FuGene HD transfection kit (manufactured by Promega Corp.) and the cells were used for subsequent experiment. Specifically, 1 μg of the recombinant plasmid, 0.1 μg of the internal standard vector pGL4.13 [Luc2/sv40] and 3 μL of FuGene HD were added to 100 μL of the medium and allowed to stand at room temperature for 15 minutes. Subsequently, 100 μL of the DNA-FuGene complex solution was added to the cells in the 6-well plate. After incubation for 46 hours, the culture medium was collected. On the other hand, the KAZ mutant expressed in the cells was washed 3 times with 3 mL of 1×PBS, then suspended in 1 mL of 1×PBS and disrupted by sonication on ice. The resultant cell extract of WNanoKAZ was used as the enzyme solution.
After adding 5 μL of the culture medium and cell extract obtained in EXAMPLE 5 to 100 μL of 30 mM Tris-HCl (pH 7.6)-10 mM EDTA (Wako Pure Chemical Industries, Ltd.) containing 1 μg of coelenterazine (manufactured by JNC Corp.), a luminescence reaction was started. Luminescence activity was measured for 60 seconds using a luminometer (manufactured by Atto Inc.: AB2200). The maximum intensity of luminescence (Imax) was given as a percentage (%).
The recombinant plasmid obtained in EXAMPLE 12 or 4 was purified in a manner similar to EXAMPLE 5 and dissolved in sterile water. The firefly luciferase vector (pGL4.13 [Luc2/sv40]: manufactured by Promega Corp.) was similarly prepared and used as an internal standard.
Culture medium containing two amino acid-substituted KAZ mutants and three amino acid-substituted KAZ mutants and cell extracts of the KAZ mutants as the enzyme solutions were prepared by the same procedure as in EXAMPLE 9.
The resultant culture medium and cell extracts were used to measure luminescence activity as in EXAMPLE 6.

Relative luminescence activity (Imax) [1]: 34
fold higher activity than native KAZ [1]: 34 fold
Relative luminescence activity, Furimazine, Imax [2]: 18
Relative luminescence activity, bis-CTZ, Imax [2]: 36
Relative luminescence activity, f-CTZ, Imax [2]: 64
Relative luminescence activity, h-CTZ, Imax [2]: 70
Relative luminescence activity, Furimazine, Int. [2]: 11
Relative luminescence activity, bis-CTZ, Int. [2]: 33
Relative luminescence activity, f-CTZ, Int. [2]: 40
Relative luminescence activity, h-CTZ, Int. [2]: 41
fold higher activity than the other coelenterazine analogues when coelenterazine was used as the substrate [2]: 4.6 fold
Relative luminescence activity, 6h-CTZ, Imax [2]: 6.2
Relative luminescence activity, 6h-CTZ, Int. [2]: 6.1
Relative luminescence activity, 6h-f-CTZ, Imax [2]: 40
Relative luminescence activity, 6h-f-CTZ, Int. [2]: 35
Relative luminescence activity, CTZ, Imax [2]: 34
Relative luminescence activity, CTZ, Int. [2]: 32
B1: WNanoKAZ-K124Q: single amino acid-substituted WNanoKAZ mutant K124Q; SEQ ID NO: 12 (protein)
chain: FTLADFVGDWQQTAGYNQDQVLEQGGLSSLFQALGVSVTPIQKVVLSGENGLKADIHVIIPYEGLSGFQMGLIEMIFKVVYPVDDHHFKVILHYGTLVIDGVTPNMIDYFGRPYEGIAVFDGKQITVTGTLWNGNKIIDERLINPDGSLLFRVTINGVTGWRLCERILA
fold higher activity than the relative activity 7.4 of dnKAZ [1]: 4.6 fold
Relative luminescence activity (%, Imax) Cell extracts (CHO-K1 cells): 21%
Relative luminescence activity (%, Imax) Culture medium (CHO-K1 cells): 0.03%

Relative luminescence activity (Imax) [1]: 32
fold higher activity than native KAZ [1]: 32 fold
Relative luminescence activity, Furimazine, Imax [2]: 17
Relative luminescence activity, bis-CTZ, Imax [2]: 17
Relative luminescence activity, f-CTZ, Imax [2]: 38
Relative luminescence activity, h-CTZ, Imax [2]: 43
Relative luminescence activity, Furimazine, Int. [2]: 12
Relative luminescence activity, bis-CTZ, Int. [2]: 18
Relative luminescence activity, f-CTZ, Int. [2]: 27
Relative luminescence activity, h-CTZ, Int. [2]: 28
fold higher activity than the other coelenterazine analogues when coelenterazine was used as the substrate [2]: 4.3 fold
Relative luminescence activity, 6h-CTZ, Imax [2]: 4.6
Relative luminescence activity, 6h-CTZ, Int. [2]: 6.1
Relative luminescence activity, 6h-f-CTZ, Imax [2]: 13
Relative luminescence activity, 6h-f-CTZ, Int. [2]: 8.8
Relative luminescence activity, CTZ, Imax [2]: 32
Relative luminescence activity, CTZ, Int. [2]: 36
B2: WNanoKAZ-R166N: single amino acid-substituted WNanoKAZ mutant R166N; SEQ ID NO: 16 (protein)
chain: B1 chain with Q124K, R166N
fold higher activity than the relative activity 7.4 of dnKAZ [1]: 4.3 fold
Relative luminescence activity (%, Imax) Cell extracts (CHO-K1 cells): 26%
Relative luminescence activity (%, Imax) Culture medium (CHO-K1 cells): <0.01%

Relative luminescence activity (Imax) [1]: 8.5
fold higher activity than native KAZ [1]: 8.5 fold
Relative luminescence activity, Furimazine, Imax [2]: 11
Relative luminescence activity, bis-CTZ, Imax [2]: 18
Relative luminescence activity, f-CTZ, Imax [2]: 29
Relative luminescence activity, h-CTZ, Imax [2]: 35
Relative luminescence activity, Furimazine, Int. [2]: 8.9
Relative luminescence activity, bis-CTZ, Int. [2]: 17
Relative luminescence activity, f-CTZ, Int. [2]: 18
Relative luminescence activity, h-CTZ, Int. [2]: 22
fold higher activity than the other coelenterazine analogues when coelenterazine was used as the substrate [2]: 1.1 fold
Relative luminescence activity, 6h-CTZ, Imax [2]: 1.7
Relative luminescence activity, 6h-CTZ, Int. [2]: 2.8
Relative luminescence activity, 6h-f-CTZ, Imax [2]: 17
Relative luminescence activity, 6h-f-CTZ, Int. [2]: 10
Relative luminescence activity, CTZ, Imax [2]: 8.5
Relative luminescence activity, CTZ, Int. [2]: 8.9
B3: WNanoKAZ-I138Y: single amino acid-substituted WNanoKAZ mutant I138Y; SEQ ID NO: 14 (protein)
chain: B1 chain with Q124K, I138Y
activity compared with dnKAZ (in words) [1]: decreased to the same level as that of dnKAZ
fold higher activity than the relative activity 7.4 of dnKAZ [1]: 1.1 fold
Relative luminescence activity (%, Imax) Cell extracts (CHO-K1 cells): 10%
Relative luminescence activity (%, Imax) Culture medium (CHO-K1 cells): <0.01%

— patent US10184116B2, “Chimeric genes for the catalytic protein of Oplophorus luciferase and use thereof” (JNC CORPORATION, priority 2014, dated 2019)
